Experimental data from patent publication US20210388105A1 (ELPISCIENCE SUZHOU BIOPHARMA, published 2021).
Numbering of substitutions follows the chain as printed. Where “and” joins values, the source holds several entries; their conditions need not be identical. Equal entries are not always repeated. Where two headings read alike, the source gives them in different places.

T1: human CD39 (full length, on cells) (human, UniProt P49961 1-510)
T1 construct: Recombinant on CHOK1-hCD39 cells or natural on SK-MEL-28, SK-MEL-5 and MOLP-8 cells; the cell line is named under assay; also called hCD39; ENTPD1
T1 sequence: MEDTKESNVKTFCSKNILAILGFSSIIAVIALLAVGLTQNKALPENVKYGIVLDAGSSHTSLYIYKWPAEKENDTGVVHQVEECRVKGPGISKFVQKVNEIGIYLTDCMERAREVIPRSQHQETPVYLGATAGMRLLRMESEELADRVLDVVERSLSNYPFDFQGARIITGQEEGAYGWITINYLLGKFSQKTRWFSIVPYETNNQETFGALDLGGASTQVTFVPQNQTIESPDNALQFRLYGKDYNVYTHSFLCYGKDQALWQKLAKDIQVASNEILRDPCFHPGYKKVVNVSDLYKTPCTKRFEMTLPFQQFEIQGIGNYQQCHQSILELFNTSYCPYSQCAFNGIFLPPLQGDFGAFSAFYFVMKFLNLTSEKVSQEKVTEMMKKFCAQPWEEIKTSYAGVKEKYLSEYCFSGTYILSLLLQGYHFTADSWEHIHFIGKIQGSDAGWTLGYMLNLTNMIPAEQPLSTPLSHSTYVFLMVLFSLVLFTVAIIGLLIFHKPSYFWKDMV

T2: 6×His tagged human CD39 (human, UniProt P49961 38-478)
T2 construct: Analyte in the Biacore assay
T2 sequence: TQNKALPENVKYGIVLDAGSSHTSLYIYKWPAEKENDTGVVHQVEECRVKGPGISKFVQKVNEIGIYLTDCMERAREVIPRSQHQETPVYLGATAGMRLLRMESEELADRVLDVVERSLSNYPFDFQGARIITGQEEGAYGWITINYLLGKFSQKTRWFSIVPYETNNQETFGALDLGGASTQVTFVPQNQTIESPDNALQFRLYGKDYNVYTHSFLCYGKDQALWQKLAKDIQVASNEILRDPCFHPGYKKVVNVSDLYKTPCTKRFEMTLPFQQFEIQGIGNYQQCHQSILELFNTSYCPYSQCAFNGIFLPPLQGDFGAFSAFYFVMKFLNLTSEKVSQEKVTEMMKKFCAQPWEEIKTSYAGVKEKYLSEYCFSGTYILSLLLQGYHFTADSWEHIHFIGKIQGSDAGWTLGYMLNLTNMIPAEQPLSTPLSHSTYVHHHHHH

B1: hu23.203 (antibody, V domains shown)
VH: QVQLVQSGAEVKKPGASVKVSCKASGYTLKDTFLHWVRQAPGQRLEWMGRIDPANGNIKYDPKFQGRVTLTADTSSNTAYMELSSLRSEDTAVYYCANSPYYYGSGYRIFDVWGQGTLVTVSS
VL: EIVLTQSPATLTLSPGERATLSCSAFSSVNYMHWYQQKPGQAPRLLIYTTSNLASGIPARFSGSGSGTDYTLTISSLEPEDFAVYYCQQRSTYPFTFGQGTKLEIK
notes: humanized c23 by yeast display
B2: hu23.211 (antibody, V domains shown)
VH: B1 VH with Q1E, L70I
VL: B1 VL with T12S
notes: as for B1
B3: hu23.201 (antibody, V domains shown)
VH: B1 VH
VL: B1 VL with T12S, A42S
notes: as for B1
B4: hu23.207 (antibody, V domains shown)
VH: B1 VH with Q1E, R50K
VL: B1 VL with T12S, A42S
notes: as for B1
B5: c14 (antibody, V domains shown)
VH: EVKLEESGGGLVQPGGSMKLSCVASGFTFSKYWMNWVRQSPEKGLEWVAEIRLKSNKYGTHYAESVKGRFTISRDDSKNNVYLQMNNLRPEDTGIYYCTTQLDLYWFFDVWGAGTTVTVSS
VL: DIVMTQSPAILSVTPGDRVSLSCRASQSISDYLHWYQQKSHESPRLLIKYASQSISGIPSRFSGSGSGSNFTLSINSVEPEDVGVYFCQNGHSLPLTFGAGTKLELR
notes: variable regions of mAb14 on human IgG constant regions; also called chimeric antibody c14
B6: hu14.H2L2 (antibody, V domains shown)
VH: EVQLVESGGGLVKPGGSLRLSCAASGFTFSKYWMNWVRQSPGKGLEWVGEIRLKSNKYGTHYAESVKGRFTISRDDSKNTLYLQMNSLKTEDTAVYYCTTQLDLYWFFDVWGQGTTVTVSS
VL: EIVLTQSPATLSLSPGERATLSCRASQSISDYLHWYQQKPGQSPRLLIYYASQSISGIPARFSGSGSGTDFTLTISSLEPEDFAVYFCQNGHSLPLTFGGGTKLEIK
notes: humanized c14
B7: hu14.H3L1 (antibody, V domains shown)
VH: B6 VH with G49A, L81V
VL: B6 VL with S43A, F87Y
notes: humanized c14
B8: hu14.H3L2 (antibody, V domains shown)
VH: B6 VH with G49A, L81V
VL: B6 VL
notes: humanized c14
B9: hu14.H4L4 (antibody, V domains shown)
VH: B6 VH with L18M, G49A, L81V
VL: B6 VL with L4M, L13V, A19V, L78V
notes: humanized c14
B10: hu14.H4L2 (antibody, V domains shown)
VH: B6 VH with L18M, G49A, L81V
VL: B6 VL
notes: humanized c14
B11: hu14.H3L3 (antibody, V domains shown)
VH: B6 VH with G49A, L81V
VL: B6 VL with L13V, L78V
notes: humanized c14
B12: hu14.H3L4 (antibody, V domains shown)
VH: B6 VH with G49A, L81V
VL: B6 VL with L4M, L13V, A19V, L78V
notes: humanized c14
B13: c23 (antibody, V domains shown)
VH: EVQLQQSGAELLRPGASVKLSCTASGYNLKDTFLHWVKQRPEQGLEWIGRIDPANGNIKYDPKFQGKATLTADTSSNTAYLQLISLTSEDTAVYYCANSPYYYGSGYRIFDVWGAGTTVTVSS
VL: QIVLTQSPAIMSASPGEKVTITCSAFSSVNYMHWYQQKPGTSPKLLIYTTSNLASGVPTRFSGSGSGTSYSLTISRMEAEDAATYYCQQRSTYPFTFGSGTKLEIQ
notes: variable regions of mAb23 on human IgG constant regions; also called chimeric antibody c23

Columns and labels:
[1] = target: T1, human CD39 (full length, on cells); assay: FACS, MOLP-8 cells
Protocol: (§1) Similarly, human CD39 expressing cells SK-MEL-5, SK-MEL-28 or MOLP-8, were incubated with a gradient concentration of anti-CD39 antibodies for 30 minutes at 4° C. Cells were washed 3 times using FACS buffer and next incubated with fluorescence labelled secondary antibody (goat-anti-mouse IgG or goat anti-human IgG) for 30 minutes at 4° C. Cells were washed 3 times and then re-suspended in FACS buffer and analyzed by flow cytometry analysis on BD Celesta. Data plotted and analyzed using GraphPad Prism 8.02.
(§2) The binding affinity of the humanized antibodies for c23 was determined by FACS, using similar methods as described in Example 3.2. The c23 humanized antibody clones showing good binding affinity are listed in below Table 19 and Table 20, and also shown in FIGS. 7A, 7B and FIG. 8. EC₅₀ is the concentration of the indicated antibodies to reach 50% of the signal in this assay.

[2] = target: T1, human CD39 (full length, on cells); assay: cell-based or functional assay
[3] = target: T2, 6×His tagged human CD39; assay: Biacore SPR, antibody captured on CM5 chip, His-tagged CD39 as analyte
Protocol: In particular, humanized antibodies hu23.H5L5, hu23.201, hu14.H1L1 and reference antibodies 1394 and T895 were characterized for binding affinity against human CD39 using Biacore (GE). Briefly the antibodies to be tested were captured to CM5 chip (GE) using Human Antibody Capture Kit (GE). The antigen of 6×His tagged human CD39 was serially diluted for multiple doses and injected at 30 μl/min for 180s. Buffer flow was maintained for dissociation of 400s. 3 M MgCl2 was used for chip regeneration. The association and dissociation curves were fit with 1:1 binding model, and the Ka/Kd/KD values for each antibody were calculated.

[4] = target: T1, human CD39 (full length, on cells); assay: FACS, MOLP-8 cells; remark: listed apart in the source
Protocol: as §1
(§3) The binding affinity of the humanized antibodies for c14 was determined by FACS using MOLP-8 cells expressing human CD39, using similar methods as described in Example 3.2.

[5] = target: T1, human CD39 (full length, on cells); assay: FACS on MOLP-8 cells, MFI
Protocol: as §1, §3

[6] = target: T1, human CD39 (full length, on cells); assay: FACS, MOLP-8 cells; remark: listed apart in the source
Protocol: as §1, §2

Row | Binder | EC50 [1] [nM] | ATPase inhibition IC50 on SK-MEL-28 cells [2] | EC50 [4] [nM] | also measured
1 | B1 | 0.429 | 0.32 nM | – | –
2 | B2 | 1.56 | 0.386 nM | – | –
3 | B3 | 1.29 | 0.264 nM | – | Kd [3]: 24 nM; koff [3]: 0.00162 s⁻¹; kon [3]: 67500 M⁻¹ s⁻¹
4 | B4 | 2.25 | – | – | –
5 | B5 | – | – | 17.5 | –
6 | B6 | – | – | 6.91 | –
7 | B7 | – | – | 5.95 | –
8 | B8 | – | – | – | binding result [5]: binds
9 | B9 | – | – | 5.46 | –
10 | B10 | – | – | – | binding result [5]: binds
11 | B11 | – | – | 6.09 | –
12 | B12 | – | – | 6.05 | –
13 | B13 | 1.28 | 0.158 nM and 0.209 nM | – | EC50 [6]: 1.03 nM and 0.397 nM
